Assay [1] deals with AT-5 cells (mutated for ATM). Put plainly: Colony forming assay. It is filed as cell-based. Here is the method:
FIG. 8. Induction of Cell Cycle Block and Clonogenic Activity by […] of Cells Mutated for ATM (AT-5) in Comparison to Non Mutated Cells (MRC-5). • A) Distribution of DNA content distribution during the cell cycle detected by FACS analysis of AT-5 cells after 36 hours of […] treatment (25 nM, 100 nM), or with adriamycin (0.02 μg/ml; ADRIAMYCIN), or with SC34 (100 nM), and as control from non treated cells. The histograms represent DNA content relative to the cell-numbers; the panel on the right indicates the percentage of the corresponding distributions of the various cell cycle phases as calculated with the MODFIT™ program-package. • B) Colony forming assay with cell lines mutated for ATM and induced for DNA damage by […].
(§1) The cell cycle response to DSB's induced by […] treatment were analysed in p53 positive or negative cells. […] Incubation for 36 hours of the cell lines mutated for ATM (AT-5) with […] results in a transient retardation of the cell cycle, as was determined by a DNA content FACS analysis. […] A single addition of […] for 60 minutes to the AT-5 cells was sufficient to induce cell cycle stop after 24 hours (FIG. 8A) and finally leads to cell death, obtained from not correctly ligated DNA, and consequently, the clonogenic activity after a single treatment with […] for 60 minutes was below 0.02% for AT-5 cells. […] In addition, the cells were incubated with adriamycin as a control.

The subject of the next assay is V3 (DNA-PKcs−/−) cells. Put plainly: Clonogenic assay of CHO cells mutated in NHEJ. It is filed as cell-based, rodent. As to conditions: 100 nM, 24 hours, grown 7-10 days (FIG. 9 black bar).
The test system of assay [2] is p53 positive or negative cells. Put plainly: Cell cycle response to DSB's by FACS in p53 positive or negative cells. The assay is classed as cell-based. Here is the method:
as §1
A general note: A flow cytometer gives signals particle by particle.

Experimental for V3 (DNA-PKcs−/−) cells: Clonogenic assay of CHO cells that were mutated for proteins involved in the NHEJ repair-pathway treated with [sequence]. The cell lines used are AA8 (parental line), V3 (DNA-PCCS^(−/−)), xrss5 (KU80^(−/−)) and XR-1 (XRCC4^(−/−)), HIS P1.13-11 (KU70^(−/−)) and the corresponding parental cell line CHO-K1. Various dilutions of the CHO cells containing the NHEJ mutations as indicated were treated for 24 hours with [sequence] (25 nM, grey bars; 100 nM, black bars) or not treated (white bars); the cells were washed and then grown for 7-10 days, stained with GIEMSA and colonies were counted.
Moreover these NHEJ mutant cells were tested with [sequence] in clonogenic, colony-outgrowth assays that were assayed after a single addition of [sequence] for 12 hours at a concentration of 10 nM (grey bars) or at a concentration of 75 nM (black bars) or without protein treatment (not treated, white bars). Seven to ten days after addition, cell growth was analysed by staining with GIEMSA-blue and quantification of diverse cell-concentrations. […] The multiwell-microtiter-plates (for an example see FIG. 13A) were scanned using the VersaDOC® (BioRad) imaging system and growth was automatically quantified with the software package Quantify One® for the analysis of the microtiter-plates (microtiter-plates scanning software).

B1: SCPVUTAT: single chain PvuII endonuclease (aa 1-157, GSGG linker, aa 2-157) fused to HIV Tat peptide and six histidine tag; SEQ ID NO:2 (protein, listed as Proteus vulgaris)
chain: MSHPDLNKLLELWPHIQEYQDLALKHGINDIFQDNGGKLLQVLLITGLTVLPGREGNDAVDNAGQEYELKSINIDLTKGFSTHHHMNPVIIAKYRQVPWIFAIYRGIAIEAIYRLEPKDLEFYYDKWERKWYSDGHKDINNPKIPVKYVMEHGTKIYGSGGSHPDLNKLLELWPHIQEYQDLALKHGINDIFQDNGGKLLQVLLITGLTVLPGREGNDAVDNAGQEYELKSINIDLTKGFSTHHHMNPVIIAKYRQVPWIFAIYRGIAIEAIYRLEPKDLEFYYDKWERKWYSDGHKDINNPKIPVKYVMEHGTKIYGSYGRKKRRQRRRGGSHHHHHH
As for B1, the “colonies relative to non treated cells (100%)” value was approximately 0% in assay [1] (100 nM, 60 minutes, grown 7-10 days (FIG. 8B black bar)) and “below 1%” with V3 (DNA-PKcs−/−) cells. Besides, the clonogenic activity entry in assay [1] (single treatment for 60 minutes) is on record as “below 0.02%”. Besides, the cell cycle response entry is “do not exhibit arrest characteristics of the cell cycle” in assay [2] (cells negative for p53); “cell cycle arrest behaviour in G1 and G2 with low S-phase values” in assay [2] (cells positive for p53).
